Experimental data as given in patent publication US20100184652A1 (NEW YORK BLOOD CENTER, published 2010).
Where no end group is shown, it is not given here. [ ]: non-standard residue; d: D form. pY = N[C@@H](Cc1ccc(OP(=O)(O)O)cc1)C(=O)O

Tests used:
GST protein alone = target: T1, GST protein alone (UniProt P08515 1-218 = GST); experiment: SPR (Biacore 3000), peptide-coupled chip
T1 construct: Control analyte in SPR; also called glutathione S-transferase
Procedure: The top photograph was incubated with a biotinylated GST-Abl-SH3 domain (GST-Abl-SH3-B). No binding to biotinylated GST (GST-B) was observed (middle panel). […] Panels B-D show binding to the c-Abl SH2 domain. […] No binding to the GST protein alone was observed (not shown). RU, response unit.
Surface Plasmon Resonance Assay. Surface plasmon resonance assay was performed using a Biacore 3000 instrument (BlAcore Inc., Piscataway, N.J.). Biotinylated 14-residue peptides, pY213 or Y213, were coupled to surface of streptavidin-coated (SA) biosensor chip (BIAcore Inc., Piscataway, N.J.). Binding reactions were done in HBS-EP buffer, containing 10 mM HEPES, pH 7.4, 150 mM NaCl, 3 mM EDTA, and 0.05% (v/v) surfactant P20. The surface was regenerated before each new injection using 50 mM NaOH and 1M NaCl. The Biacore instrument was programmed to perform a series of binding assays with increasing concentrations of GST Abl SH2 polypeptide over the same regenerated surface. Sensograms (plots of changes in response unit on the surface as a function of time) derived were analyzed using the software BIAeval 3.0.

biotinylated GST = target: T2, biotinylated GST (UniProt P08515 1-218 = GST, biotinylated (sites not given)); experiment: blot overlay with biotinylated GST
T2 construct: also called GST-B
Procedure: FIG. 2 is graphs and photographs of western blots showing the identification of the minimal binding region of c-Abl SH3 and SH2 domains in the N-terminus of Abi1. […] Recombinant GST fusion polypeptides containing the N-terminal terminal region of Abi1/Hsshb3p1 were separated on SDS polyacrylamide gels and transferred onto a nitrocellulose membrane. […] The top photograph was incubated with a biotinylated GST-Abl-SH3 domain (GST-Abl-SH3-B). No binding to biotinylated GST (GST-B) was observed (middle panel). […] Panels B-D show binding to the c-Abl SH2 domain. […] No binding to the GST protein alone was observed (not shown). RU, response unit.

T2 sequence (P08515 whole entry): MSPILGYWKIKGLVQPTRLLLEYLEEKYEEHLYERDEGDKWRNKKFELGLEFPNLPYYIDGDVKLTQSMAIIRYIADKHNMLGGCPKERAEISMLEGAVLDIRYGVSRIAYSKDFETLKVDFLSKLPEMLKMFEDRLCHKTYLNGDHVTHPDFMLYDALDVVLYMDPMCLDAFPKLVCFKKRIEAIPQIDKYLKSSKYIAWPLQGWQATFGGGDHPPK
T1 sequence (P08515 whole entry): as above

binding result (GST protein alone)	binding result (biotinylated GST)	Binder
no binding		VKPPTVPND[pY]MTSP (also: biotinylated (site not given here), Biotinylated and coupled to a streptavidin chip in SPR; also called phosphopeptide pY213) [pY213 peptide (14-residue Abi1 peptide containing phosphorylated tyrosine 213)]
	no binding	GST fusion polypeptide of Abi1 N1-187 (other, not shown: glutathione S-transferase (GST) from pGEX-2T) MAELQMLLEEEIPSGKRALIESYQNLTRVADYCENNYIQATDKRKALEETKAYTTQSLASVAYQINALANNVLQLLDIQASQLRRMESSINHISQTVDIHKEKVARREIGILTTNKNTSRTHKIIAPANMERPVRYIRKPIDYTVLDDVGHGVKWLKAKHGNNQPARTGTLSRTNPPTQKPPSPPMS
	no binding	GST fusion polypeptide of Abi1 N1-172 (other, not shown: glutathione S-transferase (GST) from pGEX-2T) MAELQMLLEEEIPSGKRALIESYQNLTRVADYCENNYIQATDKRKALEETKAYTTQSLASVAYQINALANNVLQLLDIQASQLRRMESSINHISQTVDIHKEKVARREIGILTTNKNTSRTHKIIAPANMERPVRYIRKPIDYTVLDDVGHGVKWLKAKHGNNQPARTGTLS
